In article PMC4655287, “Selection of Single-Stranded DNA Molecular Recognition Elements against Exotoxin A Using a Novel Decoy-SELEX Method and Sensitive Detection of Exotoxin A in Human Serum”:

Target: Exotoxin A (Pseudomonas aeruginosa, UniProt P11439 26-638)
Test: SPR; […]; 0-2 uM analyte, 1:1 kinetic model; SPR (Biacore X100): 100 mM NaCl, 20 mM Tris-HCl, 2 mM MgCl2 (pH not stated), room temperature, 5 uL/min
Conditions: protein: commercial; tags: none stated

Chain of Exotoxin A (P11439 26-638): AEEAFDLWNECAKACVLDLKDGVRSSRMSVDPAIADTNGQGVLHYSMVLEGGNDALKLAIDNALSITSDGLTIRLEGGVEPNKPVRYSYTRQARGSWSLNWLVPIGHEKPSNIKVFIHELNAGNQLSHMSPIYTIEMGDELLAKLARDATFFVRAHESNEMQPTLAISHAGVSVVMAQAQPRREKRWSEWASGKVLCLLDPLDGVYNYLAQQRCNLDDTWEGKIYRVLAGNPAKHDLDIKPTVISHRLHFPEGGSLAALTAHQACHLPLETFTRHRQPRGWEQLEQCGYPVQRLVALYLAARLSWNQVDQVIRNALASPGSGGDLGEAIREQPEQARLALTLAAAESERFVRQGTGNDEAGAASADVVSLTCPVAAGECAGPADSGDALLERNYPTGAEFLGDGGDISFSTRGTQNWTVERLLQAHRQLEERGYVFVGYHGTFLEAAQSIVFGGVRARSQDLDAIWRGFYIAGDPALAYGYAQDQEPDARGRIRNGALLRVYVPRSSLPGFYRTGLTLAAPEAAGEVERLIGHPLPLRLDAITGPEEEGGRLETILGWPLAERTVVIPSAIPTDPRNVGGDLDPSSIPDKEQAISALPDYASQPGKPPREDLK

B1: R14.33 (ssDNA)
DNA: TGTACCGTCTGAGCGATTCGTACCATAGGGTGCTTTTCAAGGCCACACGTTAGTGTAAGCCAGTCAGTGTTAAGGAGTGC
modifications: 5' amino-C6
Q: How did the Kd turn out when B1 was run?
A: Its Kd is 4.35 µM.
